T1: C10orf54 (antigen of the KD values in Table 42) (human, UniProt Q9H7M9 33-311, limits assumed)
T1 sequence: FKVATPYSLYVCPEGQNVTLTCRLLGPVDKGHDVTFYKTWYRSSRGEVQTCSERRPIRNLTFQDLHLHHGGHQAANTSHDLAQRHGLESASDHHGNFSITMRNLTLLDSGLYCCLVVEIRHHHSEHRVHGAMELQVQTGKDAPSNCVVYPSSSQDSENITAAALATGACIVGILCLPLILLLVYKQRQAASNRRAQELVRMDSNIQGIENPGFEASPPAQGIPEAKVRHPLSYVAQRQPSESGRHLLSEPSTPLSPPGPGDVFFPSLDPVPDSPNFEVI

T2: chimeric C10orf54: first half of IgV human and remainder (including loop) mouse (construct CC7) (human/mouse chimera, UniProt Q9D659 33-308 (mouse entry))
T2 construct: also called C10orf54 Construct 7; hsABCmmC10
T2 chain: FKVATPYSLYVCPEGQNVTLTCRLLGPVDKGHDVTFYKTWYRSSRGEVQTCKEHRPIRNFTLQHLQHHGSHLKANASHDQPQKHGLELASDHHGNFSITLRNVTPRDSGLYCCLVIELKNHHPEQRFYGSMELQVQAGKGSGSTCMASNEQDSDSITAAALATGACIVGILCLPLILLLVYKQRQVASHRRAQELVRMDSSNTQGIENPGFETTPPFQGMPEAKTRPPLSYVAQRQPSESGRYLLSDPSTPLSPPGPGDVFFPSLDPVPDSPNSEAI

T3: full length cynomolgus monkey C10orf54 (construct CC4) (cynomolgus monkey, UniProt Q9H7M9 33-311 (human entry))
T3 construct: also called C10orf54 Construct 4
T3 chain: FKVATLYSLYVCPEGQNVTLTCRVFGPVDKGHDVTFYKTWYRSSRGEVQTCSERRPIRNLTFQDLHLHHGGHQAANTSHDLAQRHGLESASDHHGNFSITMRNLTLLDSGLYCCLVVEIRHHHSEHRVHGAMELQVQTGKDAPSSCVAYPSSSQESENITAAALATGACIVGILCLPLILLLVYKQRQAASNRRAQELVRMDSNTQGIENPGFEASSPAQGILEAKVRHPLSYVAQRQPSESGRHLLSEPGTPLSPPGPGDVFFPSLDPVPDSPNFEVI

T4: chimeric C10orf54: human with mouse loop (construct CC9) (human/mouse chimera, UniProt Q9H7M9 33-311)
T4 construct: also called C10orf54 Construct 9; hsC10mmLOOP
T4 chain: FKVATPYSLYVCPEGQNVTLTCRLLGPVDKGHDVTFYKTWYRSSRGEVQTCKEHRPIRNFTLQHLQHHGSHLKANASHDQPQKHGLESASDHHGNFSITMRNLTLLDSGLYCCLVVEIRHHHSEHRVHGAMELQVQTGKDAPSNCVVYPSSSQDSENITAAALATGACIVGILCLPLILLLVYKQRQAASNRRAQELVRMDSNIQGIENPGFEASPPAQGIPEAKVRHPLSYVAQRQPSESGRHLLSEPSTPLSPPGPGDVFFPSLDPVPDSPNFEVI

T5: chimeric C10orf54: human IgV with mouse STALK (construct CC5) (human/mouse chimera)
T5 construct: also called C10orf54 Construct 5; hsIGVmmSTALK
T5 chain: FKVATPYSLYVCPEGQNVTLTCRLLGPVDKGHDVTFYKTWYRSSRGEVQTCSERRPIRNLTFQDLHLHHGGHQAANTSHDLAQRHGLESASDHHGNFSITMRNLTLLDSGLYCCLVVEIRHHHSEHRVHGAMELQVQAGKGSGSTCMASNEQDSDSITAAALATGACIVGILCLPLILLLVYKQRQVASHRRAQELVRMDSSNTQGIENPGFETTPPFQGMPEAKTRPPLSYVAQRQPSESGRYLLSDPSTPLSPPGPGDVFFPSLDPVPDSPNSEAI

T6: chimeric C10orf54: first half of IgV mouse and remainder (including loop) human (construct CC8) (human/mouse chimera, UniProt Q9H7M9 33-311)
T6 construct: also called C10orf54 Construct 8; mmabChsC10
T6 chain: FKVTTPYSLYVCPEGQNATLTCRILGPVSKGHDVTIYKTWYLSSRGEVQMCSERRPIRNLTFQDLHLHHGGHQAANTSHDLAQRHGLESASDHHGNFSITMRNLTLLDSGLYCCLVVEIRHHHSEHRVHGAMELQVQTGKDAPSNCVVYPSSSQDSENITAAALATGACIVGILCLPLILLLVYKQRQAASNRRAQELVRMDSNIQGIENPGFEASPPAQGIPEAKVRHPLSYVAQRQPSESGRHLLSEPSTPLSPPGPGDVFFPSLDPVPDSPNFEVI

T7: chimeric C10orf54: mouse with human loop (construct CC10) (human/mouse chimera, UniProt Q9D659 33-308 (mouse entry))
T7 construct: also called C10orf54 Construct 10; mmC10hsLOOP
T7 chain: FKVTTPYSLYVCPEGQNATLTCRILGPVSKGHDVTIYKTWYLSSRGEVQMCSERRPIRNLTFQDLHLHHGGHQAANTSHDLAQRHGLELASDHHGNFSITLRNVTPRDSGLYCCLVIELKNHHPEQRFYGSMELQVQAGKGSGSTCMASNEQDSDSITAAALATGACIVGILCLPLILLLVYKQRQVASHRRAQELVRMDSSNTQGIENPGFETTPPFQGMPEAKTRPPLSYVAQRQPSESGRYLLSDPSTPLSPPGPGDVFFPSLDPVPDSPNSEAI

B1: murine monoclonal antibody 305A (antibody, V domains shown)
VH: DVQLQESGPGLVKPSQSLSLTCSVTGYSITSGYYWNWIRQFPGNKLEWMGYISYDGSNNYNPSLKNRISITRDTSKNQFFLKLNSVTTEDTATYYCARRHDYLSFAYWGQGTLVIVSA
VL: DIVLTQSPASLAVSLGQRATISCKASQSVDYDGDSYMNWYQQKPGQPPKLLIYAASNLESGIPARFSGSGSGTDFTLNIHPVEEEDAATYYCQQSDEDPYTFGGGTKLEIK
notes: Mouse hybridoma antibody
B2: murine monoclonal antibody 141A (antibody, V domains shown)
VH: QVQLQQSGAELMKPGASVKISCKATGYTFSRYWIEWVKQRPGHGLEWIGEILPGSGSTNYNEKFKGKATFTADTSSNTAYMQLSSLTSEDSAVYYCAGEEVYDGYPWFGYWGQGTLVTVSA
VL: QIVLSQSPAILSASPGEKVTMTCRASSSLSYMHWYQQKPGSSPKPWIYATSNLASGVPARFSGSGSGTSYSLTISRVEAEDAATYYCQQWSSNPYTFGGGTKLEIK
notes: Mouse hybridoma antibody
B3: murine monoclonal antibody 26A (antibody, V domains shown)
VH: EVQLQQSGPELVKPGASMKISCKASGFSFTGYTMNWVKQSHVKNLEWIGLISPYNGGTSYNQKFKGKATLTVDKSSSTAYMELLSLTSEDSAVYYCARRAYGYAMDYWGQGTSVTVSS
VL: QIVLTQSPAIMSASPGEKVTMTCSASSSVSYMYWYQQKPGSSPRLLIYDTSNLASGVPLRFSGSGSGTSYSLTISRMEAEDAATYYCQQWSSYPFTFGSGTKLEIK
notes: Mouse hybridoma antibody
B4: murine monoclonal antibody 353A (antibody, V domains shown)
VH: EVKLLESGGGLVQPGGSLKLSCAASGFDFSRYWMNWVRQAPGKGLEWIGEINPDSSTINYTPSLKDKFIISRDNAKNTLYLQMSKVRYEDTALYYCARPGEIYYYGSYWFAYWGQGTLVTVSA
VL: DIVLTQSPASLAVSLGQRATISCRASESVEYYGTSLMQWFQQKPGQPPKLLIYAASNVESRVPARFSGSGSGTDFSLNIHPVEEDDIAMYFCQQSRKDPWTFGGGTKLEIK
notes: Mouse hybridoma antibody
B5: murine monoclonal antibody 230A (antibody, V domains shown)
VH: EVQLQQSGPELEKPGASVKISCKASGYSFTGSNMNWVKQNNGKSLEWIGNIDPYYGYTTYNQKFKGKATLTVDKSSSTAYMQLKSLTSEDSAVYYCARDYDYALGYFDVWGAGTTVTVSS
VL: DVVMTQTPLSLPVSLGDQASISCRSSQSLVHSNGNTYLHWYLQKPGQSPKLLIYKVSNRFSGVPDRFSGSGSGTDFTLKISRVEAEDLGVYFCSQSTHVPYTFGGGTKLEIK
notes: Mouse hybridoma antibody
B6: murine monoclonal antibody 321D (antibody, V domains shown)
VH: QVQLQQSGAELMKPGAAVKISCKATGYTFSSHWIEWVKQRPGHGLEWIGEILPGSGSTDYNEKFKGKATFTADTSSNTAYMQLSSLTSEDSAVYYCARWLLYYYAMDYWGQGTSVTVSS
VL: DVLMTQTPLSLPVSLGDQASISCRSSQSIVHSNGNTYLEWYLQKPGQSPKLLIYKVSNRFSGVPDRFSGSGSGTDFTLKITRVEAEDLGVYYCFQGSHVPFTFGGGTKLEIK
notes: Mouse hybridoma antibody
B7: murine monoclonal antibody 175A (antibody, V domains shown)
VH: QVQLQQSGAELMKPGASVKISCKATGYTFSTHWIEWVKQRPGHGLEWIGEILPGSGSTSYNEKFKGKATFTADTSSNTAYMQLSSLTSEDSAVYYCARWLLYYYAMDYWGQGTSVTVSS
VL: DVLMTQTPLSLPVSLGDQASISCRSSQSIVHSNGNTYLEWYLQKPGQSPKLLIYKLSNRFSGVPDRFSGSGSGTDFTLKISRVEAEDLGVYYCFQGSHFPYTFGGGTKLEIK
notes: Mouse hybridoma antibody
B8: murine monoclonal antibody 33A (antibody, V domains shown)
VH: QVQLQQSGAELMKPGASVKISCKATGYTFSSYWIEWVKQRPGHGLEWIGEILPGSGSTSYNEKFKGKATFTADTSSNTAYMQLSGLTSEDSAVYYCARWLLYYYAMVYWGQGTSVTVSS
VL: DVLMTQTPLSLPVSLGDQASISCRSSQSIVHSNGNTYLEWYLQKPGQSPKLLIYKVSNRFSGVPDRFSGSGSGTDFTLKISRVEAEDLGVYYCFQGSHVPYTFGGGTKLEIK
notes: Mouse hybridoma antibody

Legend:
[1] = target: T1, C10orf54 (antigen of the KD values in …); experiment: method and antigen form not stated; footnote: low affinity antibody
[2] = target: T2, chimeric C10orf54: first half of IgV …; experiment: flow cytometry, transfected 293t cells, 2 ug/ml; stain = MFI >=20-fold over isotype control
Method: (§1) To investigate epitope diversity of the anti-human C10orf54 antibodies, 293t cells were transfected with 1 of 10 different C10orf54 expression constructs that co-express a fluorescent marker. Two days after transfection, cells were stripped from the tissue culture plate, stained with 2 μg/ml anti-human C10orf54 antibody , washed, stained with anti-mouse IgG-Fc Alexa Fluor 647 polyclonal antibody, washed, and stained with the viability dye 4′,6-Diamidino-2-Phenylindole, Dihydrochloride. Upon acquisition of 10,000 live events on a flow cytometer, live cells marked with the fluorescent marker were analyzed for the degree of staining by the anti-human C10orf54 antibody. When the median fluorescence intensity fold-change relative to an isotype control antibody was at least 20-fold, the antibody was considered to stain the C10orf54 expression construct in question.

[3] = target: T3, full length cynomolgus monkey C10orf54 …; experiment: as above
Method: as §1

[4] = target: T4, chimeric C10orf54: human with mouse …; experiment: as above
Method: as §1

[5] = target: T5, chimeric C10orf54: human IgV with mouse …; experiment: as above
Method: as §1

[6] = target: T1, C10orf54 (antigen of the KD values in …); experiment: method and antigen form not stated
[7] = target: T6, chimeric C10orf54: first half of IgV …; experiment: flow cytometry, transfected 293t cells, 2 ug/ml; stain = MFI >=20-fold over isotype control
Method: as §1

[8] = target: T7, chimeric C10orf54: mouse with human …; experiment: as above
Method: as §1

| Binder | Kd [1] [nM] | binding result [2] | binding result [3] | binding result [4] | binding result [5] | Kd [6] [nM] | binding result [7] | binding result [8] |
| --- | --- | --- | --- | --- | --- | --- | --- | --- |
| B1 | 20.8 | binds | binds | binds | binds | – | – | – |
| B2 | – | – | binds | binds | binds | 1.27 | binds | – |
| B3 | – | – | binds | – | binds | 0.677 | binds | binds |
| B4 | – | – | binds | binds | binds | 2.9 | binds | – |
| B5 | – | – | binds | – | binds | 1.05 | binds | binds |
| B6 | – | – | binds | – | binds | 7.26 | binds | binds |
| B7 | 108 | – | binds | – | binds | – | – | – |
| B8 | – | – | binds | – | binds | 6.61 | binds | binds |
